Test results taken from patent EP2830663B1 (Sorrento Therapeutics, Inc., dated 2019).

Molecular target: VEGFR2 on HUVECs (UniProt P35968 20-1356, limits assumed)
Test: cell-based or functional assay

VEGFR2 on HUVECs, sequence (P35968 20-1356 limits assumed): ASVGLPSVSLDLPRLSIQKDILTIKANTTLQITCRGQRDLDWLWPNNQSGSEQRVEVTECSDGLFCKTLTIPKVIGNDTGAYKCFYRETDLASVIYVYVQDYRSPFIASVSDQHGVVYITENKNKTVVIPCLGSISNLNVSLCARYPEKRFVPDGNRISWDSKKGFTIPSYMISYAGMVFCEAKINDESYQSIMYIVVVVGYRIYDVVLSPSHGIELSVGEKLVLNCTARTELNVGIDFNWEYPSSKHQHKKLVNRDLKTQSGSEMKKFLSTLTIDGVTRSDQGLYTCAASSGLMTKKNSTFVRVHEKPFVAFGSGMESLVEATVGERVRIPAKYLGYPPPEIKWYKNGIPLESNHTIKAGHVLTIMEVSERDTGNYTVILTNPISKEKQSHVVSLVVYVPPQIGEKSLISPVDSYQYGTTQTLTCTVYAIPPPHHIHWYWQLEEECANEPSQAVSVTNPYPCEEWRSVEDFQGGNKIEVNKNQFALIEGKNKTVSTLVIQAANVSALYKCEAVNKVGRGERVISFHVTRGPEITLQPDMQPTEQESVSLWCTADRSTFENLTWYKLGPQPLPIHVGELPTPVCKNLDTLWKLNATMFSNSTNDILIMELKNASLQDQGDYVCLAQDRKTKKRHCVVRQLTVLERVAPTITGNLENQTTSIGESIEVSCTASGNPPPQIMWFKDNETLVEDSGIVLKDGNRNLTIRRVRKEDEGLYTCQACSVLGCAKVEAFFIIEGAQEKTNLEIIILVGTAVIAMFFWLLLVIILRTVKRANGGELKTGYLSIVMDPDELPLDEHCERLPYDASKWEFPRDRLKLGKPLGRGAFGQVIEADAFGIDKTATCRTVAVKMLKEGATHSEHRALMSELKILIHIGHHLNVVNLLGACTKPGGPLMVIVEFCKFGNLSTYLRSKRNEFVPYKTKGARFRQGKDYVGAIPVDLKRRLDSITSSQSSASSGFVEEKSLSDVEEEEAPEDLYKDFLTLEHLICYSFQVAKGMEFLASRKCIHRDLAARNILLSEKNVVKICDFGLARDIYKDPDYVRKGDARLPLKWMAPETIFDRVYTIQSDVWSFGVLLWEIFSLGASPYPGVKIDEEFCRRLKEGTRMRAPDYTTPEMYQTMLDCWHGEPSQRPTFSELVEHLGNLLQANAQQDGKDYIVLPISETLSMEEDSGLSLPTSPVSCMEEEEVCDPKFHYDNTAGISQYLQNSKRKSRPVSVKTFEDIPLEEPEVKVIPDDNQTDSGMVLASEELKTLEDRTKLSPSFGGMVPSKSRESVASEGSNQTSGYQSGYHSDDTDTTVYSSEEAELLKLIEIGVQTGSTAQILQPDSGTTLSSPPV

B1: VK-B8 (antibody, V domains shown)
VH: QVQLVQSGAEVKKPGSSVKVSCKAYGGTFGSYGVSWVRRAPGQGLEWMGRLIPIFGTRDYAQKFQGRVTLTADESTNTAYMELSSLRSEDTAVYYCARDGDYYGSGSYYGMDVWGQGTLVTVSS
VL: ETTLTQSPATLSVSPGERATVSCRASQSLGSNLGWFQQKPGQAPRLLIYGASTRATGIPARFSGSGSGTEFTLTISSLQSEDFAVYFCQQYNDWPITFGQGTRLEIK
IC50, inhibition of VEGF-induced HUVEC cell migration (Figure 14): 530 pM
IC50, inhibition of VEGF-induced HUVEC cell proliferation (Figure 13): 14900 pM
IC50, inhibition of VEGF-induced HUVEC migration (modified Boyden chamber): 500 pM
IC50, inhibition of VEGF-induced HUVEC proliferation: 14000 pM
IC50, inhibition of VEGF-induced p44/p42 MAPK (Erk1/2) phosphorylation in HUVECs (ELISA): 80 pM
